Positions count from the first letter of the chain named. One block for each binder: values may come before it.
Key:
[1] = molecular target: T1, CLD18A2; assay: cell ELISA, purified VHH 2 µg/ml on CHO-S-CLD18A2
T1 construct: also called claudin 18 splice variant A2; CHO-S-CLD18A2
Description: (§1) CHO-S, CHO-S-CLD18A1, and CHO-S-CLD18A2 are plated in 96-well plates at 5×10⁵ cells per well, and blocked with 3% BSA at room temperature for 1 h. The purified Anti-CLD18A2 VHH with HIS-tag is diluted to 2 μg/ml, add 100 μl to the blocked cells, and incubated for 1 h at room temperature. After washing, 100 μl/well of 1:5000 diluted mouse anti-his tag antibody (R&D Systems, Inc) was added and incubated at room temperature for 1 h. After washing, 100 μl/well of 1:10000 diluted HRP-Goat anti-mouse IgG antibody (Thermo Scientific) was added and incubated for 1 h at room temperature. After washing, TMB was added to develop color. The OD value is measured at 450 nm.

[2] = molecular target: T1, CLD18A2; assay: cell ELISA, E. coli expression supernatant on CHO-S-CLD18A2
Description: (§2) The clones selected according to the results of the 96-well plates of CHO-S, CHO-S-CLD18A1, and CHO-S-CLD18A2 cells are cultured. pcomb3XSS plasmids containing a single VHH sequence are extracted, and transformed into E. coli respectively to expression host Rosetta DE3. The respective expression clones are selected and cultured, then induced with 0.2 mM IPTG at 30° C. overnight to facilitate the periplasm-expressed proteins leakage into the culture medium supernatant. The culture medium supernatant of 16 clones are examined by ELISA again: adding 100 μl/well of 1:5000 diluted mouse anti his tag antibody (R&D Systems, Inc), incubating at room temperature for 1 h, washing, adding 100 μl/well of 1:10000 diluted HRP-Goat anti-mouse IgG antibody (Thermo Scientific), incubating for 1 h at room temperature, and adding TMB to develop color after washing. The negative control is a clone transfected with negative plasmid. The cell ELISA results are shown in Table 1, and the specific binding clones are further selected. These clones are sequenced respectively. Amino acid sequence alignment is performed. Clones with identical sequences are removed and finally 8 different clones are obtained.

[3] = molecular target: T2, CLD18A1 (Homo sapiens (Human), UniProt P56856 1-261); assay: cell ELISA, E. coli expression supernatant on CHO-S-CLD18A1
T2 construct: also called claudin 18 splice variant A1; CHO-S-CLD18A1
Description: as §2

[4] = molecular target: T2, CLD18A1; assay: cell ELISA, purified HIS-tagged VHH on CHO-S-CLD18A1
Description: as §1

[5] = molecular target: T1, CLD18A2; assay: cell ELISA, his-tagged VHH titrated on CHO-S-CLD18A2
Description: (§3) CHO-S-CLD18A2 cells are plated in a 96-well plate at 5×10⁵ cells per well, and blocked with 3% BSA at room temperature for 1 h. The purified Anti-CLD18A2 VHH fused with histidine tag is diluted in gradients with 1% BSA, added to the blocked cells, and incubated for 1 h at room temperature. After washing, 100 μl/well of 1:5000 diluted mouse anti-his tag antibody (R&D Systems, Inc) was added and incubated at room temperature for 1 h. After washing, 100 μl/well of 1:10000 diluted HRP-Goat anti-mouse IgG antibody (Thermo Scientific) was added and incubated for 1 h at room temperature. After washing, TMB was added to develop color. The OD value is detected at 450 nm. The software GraphPad Prism v5.0 is used for data processing and mapping analysis, and the EC50 value of Anti-CLD18A2 VHH against CLD18A2 on cells is obtained to reflect the affinity of the VHH to CLD18A2.

[6] = molecular target: T1, CLD18A2; assay: cell ELISA on CLD18A2-expressing cells, anti-human IgG Fc detection
Description: The Anti-C18.2-Fc fusion proteins are diluted in gradients with 1% BSA, and the HRP-Goat anti-Human IgG Fc (Novex) secondary antibody is diluted 1:20000. The cell ELISA method is the same as that described in Embodiment 3.2. The software GraphPad Prism v5.0 is used for data processing and mapping analysis. The binding curve and EC50 value of Anti-C18.2-Fc against CLD18A2 in cells are obtained to reflect the affinity of the antibody to CLD18A2.
The affinities of Anti-C18.2-hu19V1-Fc and Anti-C18.2-hu19V3-Fc are similar to that of Anti-C18.2-19-Fc, which are better than that of the positive control ch-175D10.

[7] = molecular target: T1, CLD18A2; assay: cell-based or functional assay
[8] = molecular target: T1, CLD18A2; assay: cell ELISA on CHO-S-CLD18A2, anti-his tag detection
Description: as §3
(§4) CHO-S-CLD18A2 and Jurkat cells are plated in 96-well plates at 5×10⁵/ml per well, and blocked with 3% BSA for 1 hat room temperature. The purified Anti-CLDN18×CD3 fusion protein, the Anti-C18.2-6 and Anti-C18.2-19 VHH prepared in Embodiment 4, and the anti-CD3 VHH are diluted in gradients with 1% BSA, and then added into the pre-blocked cells respectively, and then incubated at room temperature for 1 h. The following experimental process is the same as in Embodiment 4.3. […]

[9] = molecular target: T3, CD3 (human, UniProt P07766 23-207; P09693 23-182; P04234 22-171; P20963 22-164); assay: cell ELISA on CD3-positive Jurkat cells, anti-his tag detection
T3 construct: whole, on cells; also called CD3 positive cell Jurkat; cluster of differentiation 3
Description: as §3, §4

T2 sequence (P56856 whole entry, canonical isoform): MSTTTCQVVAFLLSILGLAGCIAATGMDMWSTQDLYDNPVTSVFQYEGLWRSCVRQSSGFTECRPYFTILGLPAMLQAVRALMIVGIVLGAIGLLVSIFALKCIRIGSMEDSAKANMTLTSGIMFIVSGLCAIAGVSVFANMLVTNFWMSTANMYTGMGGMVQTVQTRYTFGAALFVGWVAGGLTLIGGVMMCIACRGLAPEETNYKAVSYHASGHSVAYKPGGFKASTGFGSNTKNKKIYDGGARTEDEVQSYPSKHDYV
T3 sequence (P07766 23-207, chain 1 of 4): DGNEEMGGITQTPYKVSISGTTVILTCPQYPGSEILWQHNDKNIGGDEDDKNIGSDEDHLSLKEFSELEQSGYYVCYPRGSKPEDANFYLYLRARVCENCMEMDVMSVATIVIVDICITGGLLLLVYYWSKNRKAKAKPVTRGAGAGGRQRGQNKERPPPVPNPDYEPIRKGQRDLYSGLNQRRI
T3 sequence (P09693 23-182, chain 2 of 4): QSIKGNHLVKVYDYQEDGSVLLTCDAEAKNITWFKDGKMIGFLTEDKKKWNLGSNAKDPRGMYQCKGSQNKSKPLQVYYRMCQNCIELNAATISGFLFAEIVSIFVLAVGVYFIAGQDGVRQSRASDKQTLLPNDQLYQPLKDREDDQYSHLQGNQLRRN
T3 sequence (P04234 22-171, chain 3 of 4): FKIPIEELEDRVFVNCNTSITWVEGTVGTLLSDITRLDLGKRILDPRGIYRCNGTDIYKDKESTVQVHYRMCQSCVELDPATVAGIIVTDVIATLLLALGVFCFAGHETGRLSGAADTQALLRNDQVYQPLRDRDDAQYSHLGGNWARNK
T3 sequence (P20963 22-164, chain 4 of 4): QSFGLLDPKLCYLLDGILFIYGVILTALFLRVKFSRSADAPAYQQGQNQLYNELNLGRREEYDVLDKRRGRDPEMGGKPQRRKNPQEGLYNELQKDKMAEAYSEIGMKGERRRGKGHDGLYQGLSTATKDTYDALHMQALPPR

EC50 [6]: 2.59 nM
B2: ch-175D10 (antibody, V domains shown)
VH: QVQLQQPGAELVRPGASVKLSCKASGYTFTSYWINWVKQRPGQGLEWIGNIYPSDSYTNYNQKFKDKATLTVDKSSSTAYMQLSSPTSEDSAVYYCTRSWRGNSFDYWGQGTTLTVSS
VL: DIVMTQSPSSLTVTAGEKVTMSCKSSQSLLNSGNQKNYLTWYQQKPGQPPKLLIYWASTRESGVPDRFTGSGSGTDFTLTISSVQAEDLAVYYCQNDYSYPFTFGSGTKLEIKR

EC50 [8]: 4.6 nM
EC50 [9]: 10.4 nM
B3: Anti-CLDN18×CD3-hu19V3 (bispecific antibody)
chain: QVQLVESGGGLVQPGGSLRLSCAASGVDISSDVMAWYRQAPGKGLEFVSGLTRGGSINYADSVKGRFTISRDNSKNTLYLQMNSLRAEDTAVYYCNAEIYTGTFYPRSYWGQGTLVTVSSGGGGSGGGGSGGGGSGGGGSGGGGSGGGGSGGGGSEVQLVESGGGPVQAGGSLRLSCAASGRTYRGYSMGWFRQAPGKEREFVAAIVWSGGNTYYEDSVKGRFTISRDNAKNTMYLQMTSLKPEDSATYYCAAKIRPYIFKIAGQYDYWGQGTQVTVSS
notes: Bispecific VHH; Expressed in Pichia pastoris; also called Anti-CLDN18×CD3 fusion protein
EC50 of killing of NUGC-4-CLD18A2 with T cells (LDH release, E:T 10:1) [7]: 0.0207 nM

EC50 [8]: 6.5 nM
EC50 [9]: 9.39 nM
B6: Anti-CLDN18×CD3-hu6V3 (bispecific antibody)
chain: QVQLVESGGGLVQPGGSLRLSCAASGGIFSIGVMGWYRQAPGKGLELVATITSRGSTNYADSVKGRFTISRDNSKNTLYLQMNSLRAEDTAVYYCYADLIRPGDFYGMDYWGQGTLVTVSSGGGGSGGGGSGGGGSGGGGSGGGGSGGGGSGGGGSEVQLVESGGGPVQAGGSLRLSCAASGRTYRGYSMGWFRQAPGKEREFVAAIVWSGGNTYYEDSVKGRFTISRDNAKNTMYLQMTSLKPEDSATYYCAAKIRPYIFKIAGQYDYWGQGTQVTVSS
notes: as for B3
EC50 of killing of NUGC-4-CLD18A2 with T cells (LDH release, E:T 10:1) [7]: 0.0261 nM

OD450 nm [1]: 0.586 OD450 nm
OD450 nm [2]: 0.526 OD450 nm
OD450 nm [3]: 0.107 OD450 nm
binding result [4]: no binding (tested: 2 µg/ml)
EC50 [5]: 2.21 nM
B7: Anti-C18.2-32 (VHH, not shown: small tags and cut ends)
VHH: QLQLVESGGGLVQPGGSLRLSCAASGEISSDAMAWYRQAPGKQRELVAGMTRGGSTNYADSVKGRFTISRDFAKNTVDLQMNSLKPEDTAVYYCNAEIYTGTFYPRSYWGQGTQVTVSS
notes: Treated as one molecule; also called C18-32

OD450 nm [1]: 0.598 OD450 nm
OD450 nm [2]: 0.47 OD450 nm
OD450 nm [3]: 0.121 OD450 nm
binding result [4]: no binding (tested: 2 µg/ml)
EC50 [5]: 2.54 nM
B9: Anti-C18.2-28 (VHH, not shown: small tags and cut ends)
VHH: QVQLVESGGGLVQPGGSLRLSCAASGSIFMINVMGWYRQAPGKQRELVAVITRGASTNYADSVKGRFTISRDNAKNTVYLQMNSLKPEDTAVYYCNADLNLASDPFKWYTYWGQGTQVTVSS
notes: Treated as one molecule; also called C18-28

OD450 nm [1]: 0.573 OD450 nm
OD450 nm [2]: 0.608 OD450 nm
OD450 nm [3]: 0.253 OD450 nm
binding result [4]: no binding (tested: 2 µg/ml)
EC50 [5]: 2.23 nM
B10: Anti-C18.2-69 (VHH, not shown: small tags and cut ends)
VHH: QVQLVESGGGLVQPGGSLRLSCAASGSIFSIPVMTWYRQALGKEREFVAGISKGGTSNYADSVKGRFTVSRDNAKNTVYLQMNSLKSEDTAVYYCNAQASSFGWMPLSDYWGQGTQVTVSS
notes: Treated as one molecule; also called C18-69

Further lines, the binder ahead of its results:

B1: Anti-C18.2-6 (VHH, not shown: small tags and cut ends)
VHH: QLQLVESGGGLVQPGGSLRLSCAASGGIFSIGVMGWYRQAPGKQRELVATITSRGSTNYADSVKGRFTISGDNAKNTVYLQMNNLKPEDTAVYYCYADLIRPGDFYGMDYWGKGTLVTVSS
notes: Treated as one molecule; also called C18-6
OD450 nm [1]: 0.719 OD450 nm
OD450 nm [2]: 0.623 OD450 nm
OD450 nm [3]: 0.142 OD450 nm
binding result [4]: no binding (tested: 2 µg/ml)
EC50 [5]: 1.53 nM

B4: Anti-C18.2-15 (VHH, not shown: small tags and cut ends)
VHH: QVQLVESGGGLVQPGGSLRLSCTASGSIFRIDGMHWYRQAPGKQRELVASITPSGITHYADSVKGRFTISRDIAKKMQYLQMNSLKPEDTAVYYCNAHLVKVGGVWSDEYWGQGTQVTVSS
notes: Treated as one molecule; also called C18-15
OD450 nm [1]: 0.671 OD450 nm
OD450 nm [2]: 0.685 OD450 nm
OD450 nm [3]: 0.189 OD450 nm
binding result [4]: no binding (tested: 2 µg/ml)
EC50 [5]: 2.89 nM

B5: Anti-C18.2-19 (VHH, not shown: small tags and cut ends)
VHH: QLQLVESGGGLVQPGGSLRLSCAASGVDISSDVMAWYRQAPGKQREFVSGLTRGGSINYADSVKGRFTISRDFAKNTVDLQMNSLKPEDTAVYYCNAEIYTGTFYPRSYWGQGTQVTVSS
notes: Treated as one molecule; also called C18-19
OD450 nm [1]: 0.668 OD450 nm
OD450 nm [2]: 0.565 OD450 nm
OD450 nm [3]: 0.121 OD450 nm
binding result [4]: no binding (tested: 2 µg/ml)
EC50 [5]: 1.25 nM

B8: Anti-C18.2-7 (VHH, not shown: small tags and cut ends)
VHH: B9 VHH with M30L, V33A, A55G, T57A, A60T, A102R, Y111F
notes: Treated as one molecule; also called C18-7
OD450 nm [1]: 0.658 OD450 nm
OD450 nm [2]: 0.594 OD450 nm
OD450 nm [3]: 0.132 OD450 nm
binding result [4]: no binding (tested: 2 µg/ml)
EC50 [5]: 2.12 nM

B11: Anti-C18.2-20 (VHH, not shown: small tags and cut ends)
VHH: QVQLVESGGGLVQPGGSLRLSCAASGSIFSINAMGWYRQAPGKQRELVAAITFGGGSTNYADSVKGRFTISRDNAKNTVYLQMNSLKPEDTAVYYCNADLLVGGFPRRNVYWGQGTQVTVSS
notes: Treated as one molecule; also called C18-20
OD450 nm [1]: 0.621 OD450 nm
OD450 nm [2]: 0.528 OD450 nm
OD450 nm [3]: 0.128 OD450 nm
binding result [4]: no binding (tested: 2 µg/ml)
EC50 [5]: 1.87 nM

Reference: patent US20220259303A1 (ZHEJIANG DOER BIOLOGICS, published 2022)
